Assay results published in US20230357343A1.
Like-named read-outs stand apart in the source and are kept apart here.

What was measured:
[1] = molecular target: keyhole limpet hemocyanin; assay: polyreactivity ELISA
[2] = molecular target: keyhole limpet hemocyanin; assay: polyreactivity ELISA; remark: listed apart in the source

Binding to KLH (normalised A450) [1]: 24.4 | Binding to KLH (normalised A450) [2]: 47.1
Substance: Bococizumab (antibody)
